Binding signal (fold vs Kod-RSGA) data for 1 sequence are collected here from patent US20260218140.

For this series, the target named is T1, 5-270 TNA polymerase (synthetic construct (chimera of Thermococcus/Pyrococcus B-family polymerases)) (UniProt P56689).
T1 sequence: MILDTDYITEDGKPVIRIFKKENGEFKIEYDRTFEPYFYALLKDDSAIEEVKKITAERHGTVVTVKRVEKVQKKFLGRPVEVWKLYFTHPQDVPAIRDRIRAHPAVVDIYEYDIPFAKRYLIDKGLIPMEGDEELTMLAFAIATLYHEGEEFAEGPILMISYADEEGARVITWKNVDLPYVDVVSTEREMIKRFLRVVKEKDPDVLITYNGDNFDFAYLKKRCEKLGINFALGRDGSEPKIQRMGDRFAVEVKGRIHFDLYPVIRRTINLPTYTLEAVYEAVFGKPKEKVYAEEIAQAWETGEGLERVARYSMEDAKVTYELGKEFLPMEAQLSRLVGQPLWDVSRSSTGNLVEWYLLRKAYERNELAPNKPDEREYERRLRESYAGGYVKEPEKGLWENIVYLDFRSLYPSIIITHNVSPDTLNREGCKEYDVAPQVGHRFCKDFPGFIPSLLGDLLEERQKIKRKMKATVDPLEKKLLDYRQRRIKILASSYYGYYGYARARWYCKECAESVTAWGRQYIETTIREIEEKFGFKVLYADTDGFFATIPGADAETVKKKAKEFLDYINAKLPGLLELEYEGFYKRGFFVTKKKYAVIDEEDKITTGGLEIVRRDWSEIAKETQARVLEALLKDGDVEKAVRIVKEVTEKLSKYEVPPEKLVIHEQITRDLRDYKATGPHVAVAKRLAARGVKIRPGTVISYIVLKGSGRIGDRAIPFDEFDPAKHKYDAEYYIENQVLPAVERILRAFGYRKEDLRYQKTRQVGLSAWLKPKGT
The following applies: TNA primer extension; ~2-fold figure is from text on the clone screen.

Take “GTCCCCTTGGGGATACCACC / TCGTTCTCGGACGGAGAGATATTGAANGGTGGTATCCCCAAGGGGAC [PBS8 primer / L30.5 random library template]”: the binding signal (fold vs Kod-RSGA) worked out at 2.
